Measured values from patent US20100087371.
Changes are numbered by the printed parent chain.

B1: Mature mTGase from S. ladakanum (protein)
chain: DSDERVTPPAEPLDRMPDPYRPSYGRAETIVNNYIRKWQQVYSHRDGRKQQMTEEQREWLSYGCVGVTWVNSGQYPTNRLAFAFFDEDKYKNELKNGRPRSGETRAEFEGRVAKDSFDEAKGFQRARDVASVMNKALENAHDEGAYLDNLKKELANGNDALRNEDARSPFYSALRNTPSFKDRNGGNHDPSKMKAVIYSKHFWSGQDRSGSSDKRKYGDPEAFRPDRGTGLVDMSRDRNIPRSPTSPGESFVNFDYGWFGAQTEADADKTVWTHGNHYHAPNGSLGAMHVYESKFRNWSDGYSDFDRGAYVVTFVPKSWNTAPDKVKQGWP
B2: Met-mTGase from S. ladakanum (protein)
chain: MDSDERVTPPAEPLDRMPDPYRPSYGRAETIVNNYIRKWQQVYSHRDGRKQQMTEEQREWLSYGCVGVTWVNSGQYPTNRLAFAFFDEDKYKNELKNGRPRSGETRAEFEGRVAKDSFDEAKGFQRARDVASVMNKALENAHDEGAYLDNLKKELANGNDALRNEDARSPFYSALRNTPSFKDRNGGNHDPSKMKAVIYSKHFWSGQDRSGSSDKRKYGDPEAFRPDRGTGLVDMSRDRNIPRSPTSPGESFVNFDYGWFGAQTEADADKTVWTHGNHYHAPNGSLGAMHVYESKFRNWSDGYSDFDRGAYVVTFVPKSWNTAPDKVKQGWP
B3: AlaPro-mTGase from S. ladakanum (protein)
chain: APDSDERVTPPAEPLDRMPDPYRPSYGRAETIVNNYIRKWQQVYSHRDGRKQQMTEEQREWLSYGCVGVTWVNSGQYPTNRLAFAFFDEDKYKNELKNGRPRSGETRAEFEGRVAKDSFDEAKGFQRARDVASVMNKALENAHDEGAYLDNLKKELANGNDALRNEDARSPFYSALRNTPSFKDRNGGNHDPSKMKAVIYSKHFWSGQDRSGSSDKRKYGDPEAFRPDRGTGLVDMSRDRNIPRSPTSPGESFVNFDYGWFGAQTEADADKTVWTHGNHYHAPNGSLGAMHVYESKFRNWSDGYSDFDRGAYVVTFVPKSWNTAPDKVKQGWP
B4: GlyPro-mTGase from S. ladakanum (protein)
chain: B3 chain with A1G
B5: mTGase from S. mobaraensis (protein)
chain: DSDDRVTPPAEPLDRMPDPYRPSYGRAETVVNNYIRKWQQVYSHRDGRKQQMTEEQREWLSYGCVGVTWVNSGQYPTNRLAFASFDEDRFKNELKNGRPRSGETRAEFEGRVAKESFDEEKGFQRAREVASVMNRALENAHDESAYLDNLKKELANGNDALRNEDARSPFYSALRNTPSFKERNGGNHDPSRMKAVIYSKHFWSGQDRSSSADKRKYGDPDAFRPAPGTGLVDMSRDRNIPRSPTSPGEGFVNFDYGWFGAQTEADADKTVWTHGNHYHAPNGSLGAMHVYESKFRNWSEGYSDFDRGAYVITFIPKSWNTAPDKVKQGWP
B6: Met-mTGase from S. mobaraensis (protein)
chain: MDSDDRVTPPAEPLDRMPDPYRPSYGRAETVVNNYIRKWQQVYSHRDGRKQQMTEEQREWLSYGCVGVTWVNSGQYPTNRLAFASFDEDRFKNELKNGRPRSGETRAEFEGRVAKESFDEEKGFQRAREVASVMNRALENAHDESAYLDNLKKELANGNDALRNEDARSPFYSALRNTPSFKERNGGNHDPSRMKAVIYSKHFWSGQDRSSSADKRKYGDPDAFRPAPGTGLVDMSRDRNIPRSPTSPGEGFVNFDYGWFGAQTEADADKTVWTHGNHYHAPNGSLGAMHVYESKFRNWSEGYSDFDRGAYVITFIPKSWNTAPDKVKQGWP
B7: AlaPro-mTGase from S. mobaraensis (protein)
chain: APDSDDRVTPPAEPLDRMPDPYRPSYGRAETVVNNYIRKWQQVYSHRDGRKQQMTEEQREWLSYGCVGVTWVNSGQYPTNRLAFASFDEDRFKNELKNGRPRSGETRAEFEGRVAKESFDEEKGFQRAREVASVMNRALENAHDESAYLDNLKKELANGNDALRNEDARSPFYSALRNTPSFKERNGGNHDPSRMKAVIYSKHFWSGQDRSSSADKRKYGDPDAFRPAPGTGLVDMSRDRNIPRSPTSPGEGFVNFDYGWFGAQTEADADKTVWTHGNHYHAPNGSLGAMHVYESKFRNWSEGYSDFDRGAYVITFIPKSWNTAPDKVKQGWP
B8: GlyPro-mTGase from S. mobaraensis (protein)
chain: B7 chain with A1G

molecular target: hGHQ40N, P01241
Sequence (P01241 27-217 Q66N): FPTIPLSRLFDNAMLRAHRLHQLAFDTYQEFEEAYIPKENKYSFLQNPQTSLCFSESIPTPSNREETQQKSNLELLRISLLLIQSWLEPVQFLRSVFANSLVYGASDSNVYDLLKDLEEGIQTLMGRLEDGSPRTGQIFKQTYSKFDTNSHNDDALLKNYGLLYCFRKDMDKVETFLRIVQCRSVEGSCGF

Row | Protein | Activity towards hGHQ40N (RFU/sec/µg), dansyl-cadaverine incorporation
1 | B1 | 3.55 RFU/sec/µg
2 | B2 | 4.74 RFU/sec/µg
3 | B3 | 6.91 RFU/sec/µg
4 | B4 | 4.25 RFU/sec/µg
5 | B5 | 3.35 RFU/sec/µg
6 | B6 | 5.44 RFU/sec/µg
7 | B7 | 5.05 RFU/sec/µg
8 | B8 | 4.28 RFU/sec/µg

molecular target: hGHQ141N, P01241
Sequence (P01241 27-217 Q167N): as the sequence (P01241 27-217 Q66N) above, with N40Q, Q141N counted along it

Row | Protein | Activity towards hGHQ141N (RFU/sec/µg), dansyl-cadaverine incorporation
9 | B1 | 0.63 RFU/sec/µg
10 | B2 | 0.8 RFU/sec/µg
11 | B3 | 1.02 RFU/sec/µg
12 | B4 | 0.48 RFU/sec/µg
13 | B5 | 0.98 RFU/sec/µg
14 | B6 | 1.24 RFU/sec/µg
15 | B7 | 1.56 RFU/sec/µg
16 | B8 | 1.13 RFU/sec/µg
